Test results reported in PMC8626070 (Science Advances, 2021).

Experiments:
Test in all cases: oriented sample solid-state NMR
[1] = biological target: SLN^ΔT5R6E7 (sarcolipin with T5, R6 and E7 deleted) (UniProt O00631 1-31, ΔT5R6E7)
[2] = biological target: SLN^ΔY29Q30Y31 (sarcolipin with Y29, Q30 and Y31 deleted) (UniProt O00631 1-31, ΔY29Q30Y31)
[3] = biological target: SLN^ΔI3N4T5 (sarcolipin with I3, N4 and T5 deleted) (UniProt O00631 1-31, ΔI3N4T5)
[4] = biological target: wild-type sarcolipin (SLN^wt), recombinant (UniProt O00631 1-31)

binding result [1]: binds
binding result [2]: binds
binding result [3]: binds
binding result [4]: binds
B1: sarcoplasmic reticulum Ca2+-ATPase SERCA1a purified from rabbit skeletal muscle (enzyme)
chain: MEAAHSKSTEECLAYFGVSETTGLTPDQVKRHLEKYGHNELPAEEGKSLWELVIEQFEDLLVRILLLAACISFVLAWFEEGEETITAFVEPFVILLILIANAIVGVWQERNAENAIEALKEYEPEMGKVYRADRKSVQRIKARDIVPGDIVEVAVGDKVPADIRILSIKSTTLRVDQSILTGESVSVIKHTEPVPDPRAVNQDKKNMLFSGTNIAAGKALGIVATTGVSTEIGKIRDQMAATEQDKTPLQQKLDEFGEQLSKVISLICVAVWLINIGHFNDPVHGGSWIRGAIYYFKIAVALAVAAIPEGLPAVITTCLALGTRRMAKKNAIVRSLPSVETLGCTSVICSDKTGTLTTNQMSVCKMFIIDKVDGDFCSLNEFSITGSTYAPEGEVLKNDKPIRSGQFDGLVELATICALCNDSSLDFNETKGVYEKVGEATETALTTLVEKMNVFNTEVRNLSKVERANACNSVIRQLMKKEFTLEFSRDRKSMSVYCSPAKSSRAAVGNKMFVKGAPEGVIDRCNYVRVGTTRVPMTGPVKEKILSVIKEWGTGRDTLRCLALATRDTPPKREEMVLDDSSRFMEYETDLTFVGVVGMLDPPRKEVMGSIQLCRDAGIRVIMITGDNKGTAIAICRRIGIFGENEEVADRAYTGREFDDLPLAEQREACRRACCFARVEPSHKSKIVEYLQSYDEITAMTGDGVNDAPALKKAEIGIAMGSGTAVAKTASEMVLADDNFSTIVAAVEEGRAIYNNMKQFIRYLISSNVGEVVCIFLTAALGLPEALIPVQLLWVNLVTDGLPATALGFNPPDLDIMDRPPRSPKEPLISGWLFFRYMAIGGYVGAATVGAAAWWFMYAEDGPGVTYHQLTHFMQCTEDHPHFEGLDCEIFEAPEPMTMALSVLVTIEMCNALNSLSENQSLMRMPPWVNIWLLGSICLSMSLHFLILYVDPLPMIFKLKALDLTQWLMVLKISLPVIGLDEILKFIARNYLEG
